In PMC3176292:

Tests used:
Assay in all cases: co-IP; LUMIER: Renilla luciferase-Smad3 and Flag-tagged partner co-expressed with constitutively active Alk5 in HEK-293; Flag protein captured from cleared lysate (TNE: 10 mM Tris-HCl pH 7.8, 150 mM NaCl, 1 mM EDTA, 1% Igepal CA-630) on anti-Flag 96-well plates, 2 h at 4 °C; co-precipitated Renilla luciferase activity, TrxGA background subtracted, percent of wild-type Smad3
[1] = molecular target: Ski Smad-binding domain (amino acids 2–56) on the 3xFlag-thioredoxin scaffold (UniProt P12755)
[2] = molecular target: SARA Smad-binding domain (amino acids 665–721) on the 3xFlag-thioredoxin scaffold (UniProt O95405)
[3] = molecular target: Smurf2 Smad-binding domain (amino acids 252–330) on the Flag-thioredoxin scaffold (UniProt Q9HAU4)
[4] = molecular target: Flag-SARA, full length (UniProt O95405)
[5] = molecular target: Flag-Smad3, full length (UniProt P84022)
[6] = molecular target: Flag-Smad4, full length (UniProt Q13485)
[7] = molecular target: Flag-SkiW274E, full length (UniProt P12755)
[8] = molecular target: SIP1 Smad-binding domain (amino acids 315–487) on the 3xFlag-thioredoxin scaffold (UniProt Q9R0G7)
SIP1 Smad-binding domain (amino acids 315–487) on the 3xFlag-thioredoxin scaffold, sequence (Q9R0G7 315-487): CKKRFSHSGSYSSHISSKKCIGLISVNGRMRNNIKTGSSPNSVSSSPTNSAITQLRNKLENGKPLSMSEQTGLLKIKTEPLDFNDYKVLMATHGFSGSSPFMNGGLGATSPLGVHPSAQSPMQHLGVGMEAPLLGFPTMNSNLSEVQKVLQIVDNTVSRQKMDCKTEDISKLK

Renilla luciferase-Smad3 Del-PPGY (182–185), sequence (P84022 whole entry): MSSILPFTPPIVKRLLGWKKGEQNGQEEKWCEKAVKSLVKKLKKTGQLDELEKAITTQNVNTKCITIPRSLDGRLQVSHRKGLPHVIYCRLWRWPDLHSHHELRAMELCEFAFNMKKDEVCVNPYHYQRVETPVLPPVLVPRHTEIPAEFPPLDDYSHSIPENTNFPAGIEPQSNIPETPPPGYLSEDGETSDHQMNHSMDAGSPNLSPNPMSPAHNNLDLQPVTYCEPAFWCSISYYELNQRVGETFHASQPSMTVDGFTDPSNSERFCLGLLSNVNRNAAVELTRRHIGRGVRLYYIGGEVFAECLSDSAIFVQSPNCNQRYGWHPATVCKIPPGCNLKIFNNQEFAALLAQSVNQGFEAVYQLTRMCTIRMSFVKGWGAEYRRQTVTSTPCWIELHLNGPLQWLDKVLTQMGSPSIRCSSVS
Flag-Smad4, full length, sequence (Q13485 whole entry): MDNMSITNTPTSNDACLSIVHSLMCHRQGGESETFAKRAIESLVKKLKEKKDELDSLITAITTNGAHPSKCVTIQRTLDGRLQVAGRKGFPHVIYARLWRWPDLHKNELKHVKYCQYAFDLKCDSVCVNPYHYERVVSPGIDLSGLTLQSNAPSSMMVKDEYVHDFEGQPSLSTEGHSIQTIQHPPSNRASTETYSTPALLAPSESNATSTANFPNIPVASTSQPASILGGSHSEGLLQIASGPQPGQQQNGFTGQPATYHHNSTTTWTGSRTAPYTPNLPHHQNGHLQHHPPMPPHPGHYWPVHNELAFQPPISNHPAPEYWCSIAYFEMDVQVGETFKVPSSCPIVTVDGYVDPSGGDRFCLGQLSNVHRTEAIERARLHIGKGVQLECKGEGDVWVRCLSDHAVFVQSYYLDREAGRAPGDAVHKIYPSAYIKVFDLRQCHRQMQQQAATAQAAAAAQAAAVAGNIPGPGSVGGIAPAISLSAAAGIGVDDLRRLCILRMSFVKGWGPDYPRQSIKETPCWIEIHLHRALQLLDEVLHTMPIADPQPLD
SARA Smad-binding domain (amino acids 665–721) on the 3xFlag-thioredoxin scaffold, sequence (O95405 767-823): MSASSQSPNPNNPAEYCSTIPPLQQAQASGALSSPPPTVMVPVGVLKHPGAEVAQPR
Flag-Smad3, full length, sequence (P84022 whole entry): as the sequence (P84022 whole entry) above
Smurf2 Smad-binding domain (amino acids 252–330) on the Flag-thioredoxin scaffold, sequence (Q9HAU4 252-330): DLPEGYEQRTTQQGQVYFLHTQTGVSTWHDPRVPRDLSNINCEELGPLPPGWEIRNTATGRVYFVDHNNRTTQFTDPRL
Flag-SkiW274E, full length, sequence (P12755 whole entry W274E, the tested form may be a part): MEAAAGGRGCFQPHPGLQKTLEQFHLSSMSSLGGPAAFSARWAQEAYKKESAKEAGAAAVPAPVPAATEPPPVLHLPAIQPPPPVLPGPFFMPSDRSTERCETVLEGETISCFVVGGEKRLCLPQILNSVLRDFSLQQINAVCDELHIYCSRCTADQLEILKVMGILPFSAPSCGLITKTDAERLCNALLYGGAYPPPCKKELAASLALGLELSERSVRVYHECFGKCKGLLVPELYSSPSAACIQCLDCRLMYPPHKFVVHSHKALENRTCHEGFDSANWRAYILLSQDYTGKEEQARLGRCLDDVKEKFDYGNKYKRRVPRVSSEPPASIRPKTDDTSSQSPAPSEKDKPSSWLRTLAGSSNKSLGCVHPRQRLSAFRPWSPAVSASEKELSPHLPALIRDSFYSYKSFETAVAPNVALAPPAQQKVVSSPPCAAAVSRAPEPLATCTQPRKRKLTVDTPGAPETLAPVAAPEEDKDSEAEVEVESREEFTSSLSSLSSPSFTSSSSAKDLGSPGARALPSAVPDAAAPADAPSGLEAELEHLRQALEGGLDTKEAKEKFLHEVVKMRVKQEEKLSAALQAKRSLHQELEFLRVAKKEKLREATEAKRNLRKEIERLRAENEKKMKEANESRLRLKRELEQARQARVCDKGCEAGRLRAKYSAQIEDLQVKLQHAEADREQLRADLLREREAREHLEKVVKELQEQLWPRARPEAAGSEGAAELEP
Flag-SARA, full length, sequence (O95405 whole entry): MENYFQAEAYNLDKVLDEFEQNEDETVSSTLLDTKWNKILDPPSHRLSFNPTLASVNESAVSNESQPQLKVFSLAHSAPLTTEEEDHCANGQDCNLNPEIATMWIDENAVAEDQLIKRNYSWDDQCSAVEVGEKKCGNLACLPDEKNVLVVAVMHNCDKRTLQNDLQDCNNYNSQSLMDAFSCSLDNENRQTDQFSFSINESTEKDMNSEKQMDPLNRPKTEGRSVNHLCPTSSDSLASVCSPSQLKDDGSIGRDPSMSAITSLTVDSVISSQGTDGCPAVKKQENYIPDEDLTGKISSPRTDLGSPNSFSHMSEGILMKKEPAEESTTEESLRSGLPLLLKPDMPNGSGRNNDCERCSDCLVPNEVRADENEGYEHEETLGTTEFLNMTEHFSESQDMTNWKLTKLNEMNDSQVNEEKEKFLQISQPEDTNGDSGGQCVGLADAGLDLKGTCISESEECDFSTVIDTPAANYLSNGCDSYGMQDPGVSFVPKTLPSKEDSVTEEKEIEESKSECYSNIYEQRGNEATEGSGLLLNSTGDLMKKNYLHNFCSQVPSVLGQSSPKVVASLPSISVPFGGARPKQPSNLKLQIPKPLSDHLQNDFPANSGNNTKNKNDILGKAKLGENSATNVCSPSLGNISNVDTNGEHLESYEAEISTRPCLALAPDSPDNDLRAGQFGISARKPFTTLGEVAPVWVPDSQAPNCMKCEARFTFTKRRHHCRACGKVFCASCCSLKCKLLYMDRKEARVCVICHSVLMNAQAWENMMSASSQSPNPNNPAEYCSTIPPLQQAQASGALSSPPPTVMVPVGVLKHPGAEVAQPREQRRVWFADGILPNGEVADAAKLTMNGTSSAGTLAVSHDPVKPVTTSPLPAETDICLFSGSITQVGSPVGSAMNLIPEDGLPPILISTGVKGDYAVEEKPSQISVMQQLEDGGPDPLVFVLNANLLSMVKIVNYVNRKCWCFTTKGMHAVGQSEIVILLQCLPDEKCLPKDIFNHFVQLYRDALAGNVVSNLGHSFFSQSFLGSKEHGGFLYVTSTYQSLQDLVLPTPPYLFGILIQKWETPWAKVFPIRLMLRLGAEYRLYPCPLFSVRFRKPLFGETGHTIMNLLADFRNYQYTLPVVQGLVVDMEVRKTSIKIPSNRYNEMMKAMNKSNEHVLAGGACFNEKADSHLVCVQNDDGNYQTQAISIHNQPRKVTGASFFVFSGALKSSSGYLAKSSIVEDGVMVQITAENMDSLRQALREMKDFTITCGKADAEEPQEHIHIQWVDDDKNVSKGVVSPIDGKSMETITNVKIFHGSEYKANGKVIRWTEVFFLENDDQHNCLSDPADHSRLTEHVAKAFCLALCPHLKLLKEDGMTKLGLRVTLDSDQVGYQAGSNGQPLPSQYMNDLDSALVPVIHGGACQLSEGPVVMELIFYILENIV
Ski Smad-binding domain (amino acids 2–56) on the 3xFlag-thioredoxin scaffold, sequence (P12755 2-56): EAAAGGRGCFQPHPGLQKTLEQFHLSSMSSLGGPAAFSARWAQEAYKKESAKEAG

Renilla luciferase-Smad3 Del-PPGY (182–185) (from UniProt P84022 1-425) (natural protein)
percent binding relative to wild-type Smad3 [1]: 160%
percent binding relative to wild-type Smad3 [2]: 129%
percent binding relative to wild-type Smad3 [3]: 3%
percent binding relative to wild-type Smad3 [4]: 158%
percent binding relative to wild-type Smad3 [5]: 86%
percent binding relative to wild-type Smad3 [6]: 120%
percent binding relative to wild-type Smad3 [7]: 83%
percent binding relative to wild-type Smad3 [8]: 200%
